Source: article doi:10.1101/2023.11.14.566657 (bioRxiv, 2023)
Substitutions are numbered along the chain they refer to.

Experiments:
mass photometry = molecular target: the molecule itself; assay: mass photometry
RAD52 wild type;RPA = RAD52 wild type;RPA (human;human?, UniProt P43351;P27694;P15927;P35244 1-418;1-616;1-270;1-121, |); assay: mass photometry
RPA = RPA (UniProt P27694;P15927;P35244 1-616;1-270;1-121); assay: mass photometry
RAD52 IBD = molecular target: T1, RAD52 IBD (human, UniProt P43351 1-418, K152A;R153A); assay: mass photometry
T1 sequence: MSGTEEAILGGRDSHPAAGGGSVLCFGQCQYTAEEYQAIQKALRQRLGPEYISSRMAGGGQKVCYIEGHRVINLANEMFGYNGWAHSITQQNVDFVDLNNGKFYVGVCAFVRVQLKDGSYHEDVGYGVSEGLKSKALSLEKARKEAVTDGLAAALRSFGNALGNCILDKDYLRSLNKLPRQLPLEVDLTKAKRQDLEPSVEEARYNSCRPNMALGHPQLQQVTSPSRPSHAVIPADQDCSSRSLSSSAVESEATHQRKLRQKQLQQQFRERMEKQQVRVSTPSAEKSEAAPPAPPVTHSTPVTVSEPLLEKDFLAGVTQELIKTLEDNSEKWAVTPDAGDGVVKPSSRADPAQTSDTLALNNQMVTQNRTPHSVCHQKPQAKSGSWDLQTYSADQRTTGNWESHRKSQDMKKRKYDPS

RAD52 wild type [1] = molecular target: T2, RAD52 wild type (human, UniProt P43351 1-418); assay: mass photometry
T2 sequence: T1 sequence with A152K, A153R

SMARCAL1 = molecular target: T3, SMARCAL1 (UniProt Q9NZC9 1-954); assay: mass photometry
T3 sequence: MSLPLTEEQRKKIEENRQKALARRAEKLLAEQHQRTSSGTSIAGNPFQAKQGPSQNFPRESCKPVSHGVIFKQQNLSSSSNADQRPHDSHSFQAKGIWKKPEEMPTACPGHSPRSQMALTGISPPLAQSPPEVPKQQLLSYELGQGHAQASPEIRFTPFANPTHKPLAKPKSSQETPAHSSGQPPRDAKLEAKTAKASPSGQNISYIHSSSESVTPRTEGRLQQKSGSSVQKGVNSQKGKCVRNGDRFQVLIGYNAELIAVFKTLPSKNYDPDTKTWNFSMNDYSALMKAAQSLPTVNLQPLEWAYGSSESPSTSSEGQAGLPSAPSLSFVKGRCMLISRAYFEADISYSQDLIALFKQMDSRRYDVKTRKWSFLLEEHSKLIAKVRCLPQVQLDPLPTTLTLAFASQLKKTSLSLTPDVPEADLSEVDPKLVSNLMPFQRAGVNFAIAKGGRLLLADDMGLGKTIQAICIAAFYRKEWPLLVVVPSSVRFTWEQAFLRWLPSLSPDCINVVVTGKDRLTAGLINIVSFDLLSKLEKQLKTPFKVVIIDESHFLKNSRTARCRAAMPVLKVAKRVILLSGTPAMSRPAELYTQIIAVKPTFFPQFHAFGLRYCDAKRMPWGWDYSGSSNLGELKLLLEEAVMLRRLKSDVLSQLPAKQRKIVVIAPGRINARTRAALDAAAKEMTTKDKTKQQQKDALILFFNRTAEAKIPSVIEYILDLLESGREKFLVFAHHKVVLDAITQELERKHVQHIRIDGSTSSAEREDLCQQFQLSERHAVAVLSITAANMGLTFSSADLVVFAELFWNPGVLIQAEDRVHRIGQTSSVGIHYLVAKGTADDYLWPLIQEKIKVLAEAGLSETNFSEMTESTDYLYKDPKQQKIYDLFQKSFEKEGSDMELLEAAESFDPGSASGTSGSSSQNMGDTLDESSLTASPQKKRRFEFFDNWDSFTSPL

RAD52 wild type;SMARCAL1 = molecular target: T4, RAD52 wild type;SMARCAL1 (human;human?, UniProt P43351;Q9NZC9 1-418;1-954, |); assay: mass photometry
T4 sequence 1: T1 sequence with A152K, A153R
T4 sequence 2: T3 sequence

RAD52 wild type [2] = molecular target: T2, RAD52 wild type; assay: P1 nuclease footprinting
RAD52 wild type [3] = molecular target: T2, RAD52 wild type; assay: P1 nuclease footprinting; remark: listed apart in the source

Sequence of RPA (P27694 whole entry, chain 1 of 3): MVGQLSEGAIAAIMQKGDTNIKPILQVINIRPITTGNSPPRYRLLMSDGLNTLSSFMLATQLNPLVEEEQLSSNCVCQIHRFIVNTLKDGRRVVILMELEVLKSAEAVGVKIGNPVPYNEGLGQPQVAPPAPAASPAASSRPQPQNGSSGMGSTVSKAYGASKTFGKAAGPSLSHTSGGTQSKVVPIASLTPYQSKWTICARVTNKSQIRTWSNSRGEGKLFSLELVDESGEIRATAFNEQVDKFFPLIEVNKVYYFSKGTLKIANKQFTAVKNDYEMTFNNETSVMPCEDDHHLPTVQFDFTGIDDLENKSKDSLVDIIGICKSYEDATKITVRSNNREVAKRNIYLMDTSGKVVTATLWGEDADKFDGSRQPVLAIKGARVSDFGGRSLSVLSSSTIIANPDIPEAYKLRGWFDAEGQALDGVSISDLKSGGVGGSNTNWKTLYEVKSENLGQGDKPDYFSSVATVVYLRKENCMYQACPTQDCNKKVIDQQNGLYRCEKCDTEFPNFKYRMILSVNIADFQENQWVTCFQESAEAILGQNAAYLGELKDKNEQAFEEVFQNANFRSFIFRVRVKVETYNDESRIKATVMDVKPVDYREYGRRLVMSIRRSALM
Sequence of RPA (P15927 whole entry, chain 2 of 3): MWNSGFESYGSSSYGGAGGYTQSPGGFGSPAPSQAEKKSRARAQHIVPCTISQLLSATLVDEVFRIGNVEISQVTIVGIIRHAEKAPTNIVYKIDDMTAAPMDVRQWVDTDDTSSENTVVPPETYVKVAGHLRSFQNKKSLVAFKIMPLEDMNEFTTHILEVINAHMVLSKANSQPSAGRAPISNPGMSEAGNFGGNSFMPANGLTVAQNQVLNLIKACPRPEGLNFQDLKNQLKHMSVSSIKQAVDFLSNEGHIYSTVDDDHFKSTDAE
Sequence of RPA (P35244 whole entry, chain 3 of 3): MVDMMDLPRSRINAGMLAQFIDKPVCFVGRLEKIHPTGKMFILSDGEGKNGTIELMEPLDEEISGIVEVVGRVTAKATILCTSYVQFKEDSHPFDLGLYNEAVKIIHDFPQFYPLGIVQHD
Sequence of RAD52 wild type;RPA (P27694 whole entry, chain 2 of 3): as the sequence (P27694 whole entry, chain 1 of 3) above
Sequence of RAD52 wild type;RPA (P15927 whole entry, chain 3 of 3): as the sequence (P15927 whole entry, chain 2 of 3) above
Sequence of RAD52 wild type;RPA (P35244 whole entry, chain 4 of 3): as the sequence (P35244 whole entry, chain 3 of 3) above

B1: 6xHis-tagged human RAD52 protein (wild type) (natural protein)
chain: T1 sequence with A152K, A153R
With B1 the “stoichiometry N” value (mass photometry) was 10.

B2: heterologous fork, 30 nt gap (#6/#2/#3/#4) (mixed)
DNA 1: GGTATATTCAACAGTTCAACGACGAATGTTTTTTTTTTTTTTTTTTTTTTTTTTTTTTCTTTTGAGGCAGGCATGGTAGC
DNA 2: GCTACCATGCCTGCCTCAAAAGTTCGTAATATGCTACACACTGGAGTACCGGCATTCGTCGTTGAACTGTTGAATATACC
DNA 3: GGTACTCCAGTGTGTAGCATATTACGAACTTTTGAGGCAGGCATGGTAGC
DNA 4: GCTACCATGCCTGCCTCAAAAG
B2: binds (RAD52 wild type;RPA); binds (RPA); binds (RAD52 IBD). B2: binds (RAD52 wild type [1]); binds (SMARCAL1); binds (RAD52 wild type;SMARCAL1).

B3: heterologous fork P1 assay (#5/#2/#3/#4) (mixed)
DNA 1: GGTATATTCAACAGTTCAACGACGAATGTTGTGCATAACGTCGCTCCGTAGCTATACGCTTTTGAGGCAGGCATGGTAGC
DNA 2: B2 DNA 2
DNA 3: B2 DNA 3
DNA 4: GCTACCATGCCTGCCTCAAAAG
B3: binds (RAD52 wild type [2]).

B4: homologous fork, 30 nt leading gap (#1/#2/#3/#4) (mixed)
DNA 1: GGTATATTCAACAGTTCAACGACGAATGTTGGTACTCCAGTGTGTAGCATATTACGAACTTTTGAGGCAGGCATGGTAGC
DNA 2: B2 DNA 2
DNA 3: B2 DNA 3
DNA 4: GCTACCATGCCTGCCTCAAAAG
B4: binds (RAD52 wild type [3]).
